Measurements published in patent publication US20240050583A1, “PROTEIN-DRUG CONJUGATE AND SITE-SPECIFIC CONJUGATING METHOD” (HARBOUR BIOMED (SHANGHAI) CO., LTD, priority 2020, published 2024).

Experiments:
[1] = Molecular weight and coupling product components (DAR) by LC-MS; conditions: coupling product without HIC purification, protein 4.1 mg/mL
From the text: In this example, liquid chromatography-mass spectrometry (LC-MS) was used to analyze the protein sample for molecular weight. Those skilled in the art can use different models of liquid chromatography (LC) and mass spectrometer (MS) to establish similar analytical methods according to the technical instructions and through experimental exploration. Only representative methods are listed in this example.
In certain specific embodiments, determination of the molecular weight of a protein sample required desaccharification on the sample to remove modifications such as saccharide chains, for example, the sample was processed with glycosidase PNGase F (NEB, #P0705L) at 37° C. for at least 4 h. For example, in all examples of the present invention, when the molecular weight of protein samples was determined, unless otherwise emphasized, the protein samples to be tested were subjected to desaccharification by the glycosidase PNGase F.
In certain specific embodiments, determination of the reduced molecular weight of a protein sample required reduction on the sample, for example, the sample was processed with […] dithiothreitol (DTT) at 37° C. for 10 min. For example, in all examples of the present invention, the samples after reduction were called reduced samples, and the samples without reduction were called non-reduced samples.
Buffer A was 0.1% formic acid FA dissolved in water, and buffer B was 0.1% formic acid FA dissolved in acetonitrile. Injection: about 1 μg; flow rate: 0.3 mL/min; and operation temperature: 80° C. When reduced samples were tested, buffer A and buffer B were mixed within 12 min to form a linear gradient: using 10-60% B for the first 8 min and 80% B for the last 4 min. When non-reduced samples were tested, buffer A and buffer B were mixed within 9 min to form a linear gradient: using 15-60% B for the first 6 min and 80% B for the last 3 min.
Buffer A was 0.1% formic acid FA dissolved in water, and buffer B was 0.1% formic acid FA dissolved in acetonitrile. Injection: about 10 μL; flow rate: 0.2-0.5 mL/min; and operation temperature: 80° C. […]

[2] = biological target: T1, CHOK1-hCD47 cells highly expressing human CD47 (Homo sapiens, UniProt Q08722); assay: FACS binding to cells highly expressing CD47; conditions: flow cytometry FACS
T1 construct: host or cells: CHOK1-hCD47 (CHO-K1)
Protocol: The binding ability of the antigen-binding protein to CHOK1-hCD47 cells (GenScript, M00581) highly expressing human CD47 was determined by flow cytometry FACS. Specifically, the cells were digested and resuspended in a DMEM complete medium, and the cell density was adjusted to 1×10^6 cells/mL. The cells were seeded in a 96-well V-bottom plate (Corning, #3894) at 100 µL/well, followed by the addition of test binding proteins diluted in a 3-fold gradient at a concentration that was 2 times the final concentration, each at 100 μL/well. The cells were incubated at 4° C. for 1 h away from light. Thereafter, the cells in each well were rinsed twice with 100 μL of pre-cooled PBS, and centrifuged at 500 g at 4° C. for 5 min, and then the supernatant was discarded. Thereafter, a fluorescent secondary antibody (Alexa Fluor 488-conjugated AffiniPure Goat Anti-Human IgG, Fcγ Fragment Specific, Jackson ImmunoResearch Inc., #109-545-098, diluted in a 1:500 ratio) was added at 100 μL/well, and the plate was incubated at 4° C. for 30 min away from light. The cells in each well were then rinsed twice with 100 μL of pre-cooled PBS and centrifuged at 500 g at 4° C. for 5 min, and then the supernatant was discarded. […] Fluorescence signal values were read using a BD FACS CANTOII flow cytometer, and the data were processed and analyzed using FlowJo v10 (FlowJo, LLC) software.

[3] = system: NCI-H929 cells; assay: Cytotoxic killing experiment (Example 9.5), NCI-H929; conditions: 72 h, CellTiter-Glo; proteins up to 10 nM, mc-vc-PAB-MMAE up to 20 nM
Protocol: (§1) The HEK293T-hBCMA, NCI-H929, HEK293T and SNU-16 cells were seeded in 96-well plates (Perkin Elmer, #6005225) respectively, with the following seeded cell number: 2500 cells/50 μL/well (HEK293T-hBCMA), 5000 cells/50 μL/well (NCI-H929), 2500 cells/50 μL/well (HEK293T), and 5000 cells/50 μL/well (SNU-16). Then, the plates were incubated overnight at 37° C. with 5% CO2. Then, a test sample serially pre-diluted was added at 50 μL/well. PR004433, PR004433-ADC and PR004432-ADC were diluted at a 3-fold concentration gradient from the highest final concentration of 10 nM, and mc-vc-PAB-MMAE was diluted at a 3-fold concentration gradient from the highest final concentration of 20 nM. In addition, a well without the test sample was set as a control well. Thereafter, the plates were incubated at 37° C. with 5% CO2 for 72 h, a CellTiter-Glo cell viability detection reagent (Promega, #G7573) was added, then the plates were incubated at room temperature for at least 10 min to obtain stable luminescence signals, and the luminescence values were detected using a microplate reader. The cell viability was calculated based on the luminescence values by the following formula: […]
The data were processed and analyzed by plotting using GraphPad Prism 8 software, and binding curves of the antibodies to target cells, EC50 values and other parameters were obtained through four-parameter nonlinear fitting. […]

[4] = system: HEK293T-hBCMA cells; assay: Cytotoxic killing experiment (Example 9.5), HEK293T-hBCMA; conditions: 72 h, CellTiter-Glo; proteins up to 10 nM, mc-vc-PAB-MMAE up to 20 nM
Protocol: as §1
(§2) The data were processed and analyzed by plotting using GraphPad Prism 8 software, and binding curves of the antibodies to target cells, EC50 values and other parameters were obtained through four-parameter nonlinear fitting.

[5] = system: NCI-H929 cells; assay: Cytotoxic killing experiment (Example 7.5), NCI-H929; assay type: cell-based, human; conditions: 72 h, CellTiter-Glo; PR001046-ADC at 0.1 μg/mL and above; PR001046 0.01-1 μg/mL; mc-vc-PAB-MMAE 0.1-10 nM
From the text: The data were processed and analyzed by plotting using a GraphPad Prism 8 software. In this example, multiple groups of different PR001046-ADC samples were used, including samples containing different percentages of DAR=2 (D2) components before or after purification.

[6] = system: HCC1954 cells; assay: Cytotoxic killing experiment (Example 8.5), HCC1954; conditions: 72 h, CellTiter-Glo; proteins up to 30 nM, mc-vc-PAB-MMAE up to 60 nM
Protocol: This example was to study the cell killing activity of the anti-5T4 antibody coupling product PR004432-ADC against a human breast cancer cell strain HCC1954 (ATCC, CRL-2338) highly expressing human 5T4.
The HCC1954 cells were seeded in a 96-well plate (Perkin Elmer, #6005225) at 4000 cells/50 μL/well and incubated overnight at 37° C. with 5% CO2. Then, a test sample serially pre-diluted was added at 50 μL/well. PR004432, PR004432-ADC and PR004433-ADC were diluted at a 3-fold concentration gradient from the highest final concentration of 30 nM, and mc-vc-PAB-MMAE was diluted at a 3-fold concentration gradient from the highest final concentration of 60 nM. In addition, a well without the test sample was set as a control well. Thereafter, the plates were incubated at 37° C. with 5% CO2 for 72 h, a CellTiter-Glo cell viability detection reagent (Promega, #G7573) was added, then the plates were incubated at room temperature for at least 10 min to obtain stable luminescence signals, and the luminescence values were detected using a microplate reader. The cell viability was calculated based on the luminescence values by the following formula:
Cell viability (%)=(A/B)×100% […]
as §2

T1 sequence (Q08722 19-323): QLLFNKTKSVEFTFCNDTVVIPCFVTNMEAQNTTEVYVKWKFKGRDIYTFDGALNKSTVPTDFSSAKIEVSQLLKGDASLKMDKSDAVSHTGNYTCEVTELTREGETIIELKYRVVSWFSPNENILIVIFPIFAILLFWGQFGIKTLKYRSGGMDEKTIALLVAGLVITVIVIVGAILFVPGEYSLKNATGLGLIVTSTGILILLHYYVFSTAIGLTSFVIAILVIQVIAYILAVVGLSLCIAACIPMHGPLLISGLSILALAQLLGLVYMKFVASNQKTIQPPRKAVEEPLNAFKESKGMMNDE

| binding activity to CD47 (CHOK1-hCD47 cells) [2] | Substance | Average DAR ([1]; Experiment 1, TCEP 1.5 equivalents) | Average DAR ([1]; Experiment 2, TCEP 2.0 equivalents) | Average DAR ([1]; Experiment 3, TCEP 3.0 equivalents) | cytotoxic killing against NCI-H929 cells [3] | cytotoxic killing against HEK293T-hBCMA cells [4] | cell killing of BCMA-positive cells NCI-H929 [5] | cytotoxic killing against HCC1954 cells [6] |
| --- | --- | --- | --- | --- | --- | --- | --- | --- |
| strong specific binding activity | PR006345: SIRPa-Fc fusion protein: ALX148 SIRPa variant fused with human IgG1 hinge and Fc, SEQ ID NO: 149 | 1.89 | 2.23 | 2.91 | – | – | – | – |
| – | mc-vc-PAB-MMAE [reference compound] | – | – | – | cannot produce effective killing | cannot produce effective killing | cannot effectively kill | only has a killing effect at the highest concentration (60 nM) |
